Laboratory results published in article PMC12814185, “Receptor-Mediated Shuttling of a D‑Amino Acid Peptide Achieves High Nanomolar Cytosolic Concentrations” (Journal of the American Chemical Society, 2025).

Experiments:
[1] = biological target: T1, chemokine-like receptor 1 (CMKLR1), Q99788
T1 chain: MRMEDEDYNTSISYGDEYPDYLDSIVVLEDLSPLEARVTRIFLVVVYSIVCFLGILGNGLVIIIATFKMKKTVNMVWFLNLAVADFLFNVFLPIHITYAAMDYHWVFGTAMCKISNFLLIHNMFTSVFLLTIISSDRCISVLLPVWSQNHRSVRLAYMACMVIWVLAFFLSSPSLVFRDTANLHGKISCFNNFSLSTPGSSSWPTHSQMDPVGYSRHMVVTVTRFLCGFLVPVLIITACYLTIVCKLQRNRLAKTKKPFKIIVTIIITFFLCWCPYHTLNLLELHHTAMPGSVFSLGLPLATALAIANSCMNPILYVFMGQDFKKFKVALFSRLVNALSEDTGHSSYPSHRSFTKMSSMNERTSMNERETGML

[2] = biological target: recombinant human GST-MDM2 (human), Q00987; test: fluorescence polarisation
Chain of recombinant human GST-MDM2 (human), Q00987 (Q00987 whole entry): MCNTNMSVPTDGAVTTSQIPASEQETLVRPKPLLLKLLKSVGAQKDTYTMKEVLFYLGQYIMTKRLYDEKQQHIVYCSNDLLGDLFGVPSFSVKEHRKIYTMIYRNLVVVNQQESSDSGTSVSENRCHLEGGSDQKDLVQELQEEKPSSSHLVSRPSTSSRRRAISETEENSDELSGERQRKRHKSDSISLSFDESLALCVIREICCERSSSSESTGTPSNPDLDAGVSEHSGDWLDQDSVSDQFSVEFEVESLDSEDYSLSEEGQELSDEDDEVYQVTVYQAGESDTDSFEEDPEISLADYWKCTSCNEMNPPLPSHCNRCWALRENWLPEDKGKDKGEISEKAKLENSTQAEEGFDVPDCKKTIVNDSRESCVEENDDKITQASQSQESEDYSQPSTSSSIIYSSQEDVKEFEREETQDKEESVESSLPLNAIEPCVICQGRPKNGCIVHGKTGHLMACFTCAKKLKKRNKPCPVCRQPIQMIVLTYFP

B1: Cy5-hsLMWP-PMIγ-cC9 (peptide)
chain: GSVSHHHHHHGGHHHHKDWWPLAFEALLRGEV
modifications: (EG)3 spacer between hsLMWP and D-lysine; D-lysine at 17 carrying Cy5-(EG)3 on its side chain; dwwplafeallr (residues 18-29) are D-amino acids; citrulline at 33; (EG)3 spacer between Cit and Pra; propargylglycine (Pra) at 34, joined to the azidolysine of cC9 by CuAAC; C-terminal amide | N-terminal acetyl; azidolysine at 1 (joined to Pra of the other chain by CuAAC); D-homocysteine at 5 in a …
- Ca2+ flux assay, EC50 [1]: 220 nM
- Kd [2]: 90 nM
